Data set [1] concerns the molecule itself. The data set is described as follows: SEC. (In general: SEC sorts molecules by how far they enter the pores of the column.)
Data set [2] concerns the molecule itself. Briefly: SEC. This is another data set of the same source.

Read-outs that look alike come from different tables or passages of the source.

B1: T3D σ1 Tail-Body (25-291) (domain or fragment, mammalian orthoreovirus T3D (Dearing))
chain: GAMASKGLESRVSALEKTSQIHSDTILRITQGLDDANKRIIALEQSRDDLVASVSDAQLAISRLESSIGALQTVVNGLDSSVTQLGARVGQLETGLAELRVDHDNLVARVDTAERNIGSLTTELSTLTLRVTSIQADFESRISTLERTAVTSAGAPLSIRNNRMTMGLNDGLTLSGNNLAIRLPGNTGLNIQNGGLQFRFNTDQFQIVNNNLTLKTTVFDSINSRIGATEQSYVASAVTPLRLNSSTKVLDMLIDSSTLEINSSGQLTVRS
The term stoichiometry N denotes a count of units in the complex or per binding partner. On to B1, for which the “stoichiometry N” value in “SEC [1]” stood at 3.

B2: T3D σ1 Body-Head (170-455), wild type (domain or fragment, mammalian orthoreovirus T3D (Dearing))
chain: GAMAVTSAGAPLSIRNNRMTMGLNDGLTLSGNNLAIRLPGNTGLNIQNGGLQFRFNTDQFQIVNNNLTLKTTVFDSINSRIGATEQSYVASAVTPLRLNSSTKVLDMLIDSSTLEINSSGQLTVRSTSPNLRYPIADVSGGIGMSPNYRFRQSMWIGIVSYSGSGLNWRVQVNSDIFIVDDYIHICLPAFDGFSIADGGDLSLNFVTGLLPPLLTGDTEPAFHNDVVTYGAQTVAIGLSSGGAPQYMSKNLWVEQWQDGVLRLRVEGGGSITHSNSKWPAMTVSYPRSFT
In the case of B2, the “stoichiometry N” value in “SEC [2]” was 3.

B3: T3D σ1 Head (293-455), wild type (domain or fragment, mammalian orthoreovirus T3D (Dearing))
chain: GAMASPNLRYPIADVSGGIGMSPNYRFRQSMWIGIVSYSGSGLNWRVQVNSDIFIVDDYIHICLPAFDGFSIADGGDLSLNFVTGLLPPLLTGDTEPAFHNDVVTYGAQTVAIGLSSGGAPQYMSKNLWVEQWQDGVLRLRVEGGGSITHSNSKWPAMTVSYPRSFT
Regarding B3, the “stoichiometry N” value in “SEC [1]” was 3.

Source of the values: paper doi:10.1101/2021.02.01.429088 (bioRxiv, 2021).
